Reference: the DeepSol protein solubility set

Assay: soluble on expression in E. coli; label from the status in PepcDB or PDB records

Sequence	soluble on expression in E. coli
MGSDKIHHHHHHMSKANFPTDPALTAIAIAYRNRRMIADEVLPRTPVAKQEFTYLHYNLGEGFTVPNARVGRTSRPNQVEFGATQLTSSTEDFALDAPVPLVDIANKPTNYNPKGRATEQTTNLIELGREVRTANLVFNKKSYANGLTKTLSGNNQWSHDDSKPIADLLSALDTPVMRPNIMVLGQKAATALRTNKSIIKAYNGSLGDEGLVPLEYLKELFELEDIYVGQALINTVNQAKKAVLQQAWGNHCALIYRDRLADTNGGTTFGLTAQFGSREVRDIFDENMGMRGGYNVRVGESVKELITAPDLGFFLENVIA	not soluble
MGSDKIHHHHHHMTRTEHEISFGPYTAVATTRGGALRELRHEGRDLVVGFAADGEIPDYRGVICAPWPNRLAGGRYSFEGKDYQAVVNEEQRGTALHGLVFGAVWELLEHTASSVRLGTRIEPGDGYPGRLDVSVDYELRADGLHSTVRARNVGVEAAPYGACPHPYLIAGPAPLDEWSVQIPATEFMEVSADRLLPEGMAGVEGHAFDFRTEKVLGSVQIDHAFTGLIPNADGLAAVRVHDPSGTGVELEWDATWPWLQIHTADKPSGPTRLGLAVEPMTCPPDAFNSGTDVLRLAPGESHEASWTIRALSR	not soluble
MGHHHHHHGGHMSLDMKLQQVQVLKPQLTQELRQAITLLGYHSAELAEYIDELSLENPLIERKETDTPPLSYHKTNKNRMNAQEAGLQLSNPQKTLQDALKQQSLDMNLTNTEKKIFNYLIHSLDSNGYLEEDIEEAARRLSVSAKEAEAVLAKLQSLEPAGIGARSLQECILLQLQRLPNRNEQAEMLVSAHFDAFAQKKWKTLSVETGIPLHTIQDISDDIAALHPRPGLLFARPEQDVYIEPDIFITVKNGHIAAELNTRSFPEIDLHPQYRTLLSSGSCQDTVSYLSAKYQEWRWLSRALRQRKQTITRIINELITRQKDFFLKGRSAMKPLTLREVADCLSLHESTVSRAIKGKTIQTPYGLFEMKLFFSAKAEASGDGDASNYAVKTHLENLINQEDKTKPLSDQKLVDLLYEQHGIQISRRTVAKYRDQMNIPSSAARKRYKEGGS	soluble
MAHHHHHHMLKECDFFSDSYGCIITKSIGYQAPFPLVRLSNGRSTKIPDGACVQGACFVSFGADHTGSRGRLLTMDVSARASSVSFLQLLSSSCPPVTLEPEVEYVSKIETTETASAVVTRGGGNRWSTSVYVQGEDVPDTAYSRRVHFHRASVASLFGFSLWLMEVAKDDYGAQAVHRYSLSTALTGGVSESTLVSANLGRPLDIIALSEDTALVLGTNGVAMADRRQRASDILFFSNLLNGGATGDRQLLTFGEDYTLRAYDLRDVSAPLFQATSATYLRIKSEIDTRASLLVTSDITGVFDVLHVTTVASLQHSGDTVLDAAVLPSRHNGVRVCTSTGSGMIYDWTVT	not soluble
MGSDKIHHHHHHMHVSLDTMVDTLKAAAESSRLRILALLSRGDLTVSDLTEILGQSQPRVSRHLKLLLEAGLIDRYQEGSWAFFRLSDADSARDFVMGLVSSIRGADPQVERDLERLASVKRKRQDRAAEYFSVNAASWDHIRSLHVPDRAVEAAMLKLVGKRPFQSMLDLGTGTGRLLEIFSPLYRRGVGIDMSREMLTVARANLDKAGVSNAQVRQGDIFSPPVERDAFDLVTIHQVLHYLDDPARAIHEAARLLRPSGRLVIVDFAPHTLEFLREEHAHMRLGFSDRQIGEWFAEAGLDLEDAQEFEPRGGSEPRLTVKLWLGRDRRLLIADPANDSQQTKVNSIGEIA	not soluble
MSPGAWPRPRVVVSACLGFAAVRYSGELIPDKVVAALKEHVDFVPVCPEVEIGLGVPRPVVRLVRGEGGGPRMVQPKTGEDLTERMRAFSQRFLQGLGEVEGFLLKNRSPSCALKDAKRYAHAEGGGVVGKGPGLFAQAVEEAFPLLPKEDEGRLTNPRIRAHFFTRIFALARLRRVEDLPGLMAFHARYKLLLLAYNQKEARALGRLLAGAKGRPFPEVHGAYEEGFLRATERPWRLGAMADALLHAFGHFKKALAPREKAHFLDLLADFREERLPLEAPLALLASWARRFAEPYVEAQALLEPYPRALMHVPGA	soluble
MHKSNNKIRQRIIIKLSGAGLTKENSQPFSNDFFETIINQLKVLKESYQVGIVIGGGNIIRGNNCQEFNIAEYHGHQLGIIATVVNGYFLKAKLDAHNLKSALLSAISCPSLAVQILSQQTIDKAFEENDFVIFSGGTGNPYFSTDTALALRAVQTKAVAILIGKNGVDGVYTADPKKDKNATFLPTLNYDHAIKNDLKIMDITAFTMCKENNLKIIIFNINAENALLDALNKKGRFTIIENNLEHHHHHH	soluble
MSLIKFNIAQWRAWAPGLESVDAWQAWSRQPALPENSDAAPDVSFLPAMQRRRLSRLARMAFSVGWPLAEGLEQLPLVFISRHGETPRTFEILSDLAAEQPLSPTQFSLSVHNAVIGLWSIMRGETSEMTALAAAGDGLEHGLLEAATLLADGAPHVLLVITEEQPPEAYASWIDDVPFPYALGLLLTPGDDWQLSLGSHDGQTPRAQWPHALNLLRTLLGAQTFCQHAWMNRVWTWQRNHEGHHHHHH	soluble
MAHHHHHHHRSDASVIVVGAGPAGLMLAGELRLGGVDVMVLEQLPQRTGESRGLGFTARTMEVFDQRGILPAFGPVETSTQGHFGGRPVDFGVLEGAHYGVKAVPQSTTESVLEEWALGRGAELLRGHTVRALTDEGDHVVVEVEGPDGPRSLTTRYVVGCDGGRSTVRKAAGFDFPGTSASREMFLADIRGCEITPRPIGETVPLGMVMSAPLGDGVDRIIVCERGAPARRRTGPPPYQEVAAAWQRLTGQDISHGEPVWVSAFGDPARQVSAYRRGRVLLAGDSAHVHLPAGGQGMNVSVQDSVNLGWKLAAVVSGRAPAGLLDTYHEERHPVGRRLLMNTQAQGMLFLSGDEMQPLRDVLSELIRYDEVSRHLAGMVSGLDIRYEVDGGDHPLLGMRMPHQELVRAHGKTSTTELLHPARGVLLDIADDAEVREAATGWSDRVDIVTASLHDAPPQGPLSDARAVLVRPDGYVAWISPGSRAGLTEALDRWFGPAR	soluble
MAHHHHHHMSLRPDVFGQPPIVDRFARFAIARRGSSSSHNNNNNNNNNNSGSVSPLERGGVHGNDKSPAAAPVAAGVGSKAGVRESSAKSRLSLGVSNTDVVLESPISSNAAEATSEVMDVTSTAQADDEEEDEVETLNRFMADQSDETATRTHKRTLFSLNLTLAEVMETAMHFSQMRPTSPEEYKKAMAMIRAADDARHERIAAFRSATPTTGSHNGMGSSPSSSLTTTPTVGYPDAALHIEEPMHFGVVMLHIRFALRKIIHASMRRLAAQQGPKTLSMMVEMLREVDPKWHQNQNNNSGELRRQSDSMLAGTLRVLVARSVVCVDLVGEAGDLLGGGAGGLAISAVGLQRTERALHLVQRAKRSATGSGGNTGDHVSRRRPQRHRGDGGARTSSSGEKRSIS	not soluble
GSHGMRVIIAGFGRFGQITGRLLLSSGVKMVVLDHDPDHIETLRKFGMKVFYGDATRMDLLESAGAAKAEVLINAIDDPQTNLQLTEMVKEHFPHLQIIARARDVDHYIRLRQAGVEKPERETFEGALKTGRLALESLGLGPYEARERADVFRRFNIQMVEEMAMVENDTKARAAVYKRTSAMLSEIITEDREHLSLIQRHGWQGTEEGKHTGNMADEPETKPSSTSGGLVPRGSSGMILIIYAHPYPHHSHANKRMLEQARTLEGVEIRSLYQLYPDFNIDIAAEQEALSRADLIVWQHPMQWYSIPPLLKLWIDKVFSHGWAYGHGGTALHGKHLLWAVTTGGGESHFEIGAHPGFDVLSQPLQATAIYCGLNWLPPFAMHCTFICDDETLEGQARHYKQRLLEWQEAHHG	soluble
MHHHHHHSSGVDLGTENLYFQSMASESETLNPSARIMTFYPTMEEFRNFSRYIAYIESQGAHRAGLAKVVPPKEWKPRASYDDIDDLVIPAPIQQLVTGQSGLFTQYNIQKKAMTVREFRKIANSDKYCTPRYSEFEELERKYWKNLTFNPPIYGADVNGTLYEKHVDEWNIGRLRTILDLVEKESGITIEGVNTPYLYFGMWKTSFAWHTEDMDLYSINYLHFGEPKSWYSVPPEHGKRLERLAKGFFPGSAQSCEAFLRHKMTLISPLMLKKYGIPFDKVTQEAGEFMITFPYGYHAGFNHGFNCAESTNFATRRWIEYGKQAVLCSCRKDMVKISMDVFVRKFQPERYKLWKAGKDNTVIDHTLPTPEAAEFLKESEL	soluble
GAGTQTAQTQALDSDGIPTGGEWITMFDGKTLNGWRGYCRQDVPLGWVVEDGSITYKGSDNKADTGFGDLIYDKKFKNFVFEIEWKIDKAGNSGIFYTAQEIEGTPIYYSSPEYQLLDNENMPDAWEGCDGNRQAGAVYDMIMPDPQPVKPYGNWNKTRIVVYNQRVIHYMNDVKILEFQFGTPVWRALVDHSKFSKFSTSPEKCPEAYDLMLQCGKQPGYIGMQDHGYGVCFRNIRIKEL	soluble
MGSDKIHHHHHHVTSDLDFHLFCPKGALSDLVQGIWSVSRPAEADELHAWLHSDAASGLLINLGAPLGYDEQEVPAGVYLLPVNKQTTRVTLPPGALAVGVRFLPGAGRAWMMERFAFEQGREAITPLTYHAELMALAASLRACRGHRQRLSLTYRWLRANQTLNQPLPRVINEVLQALDRPDADMTAFENGVMSQRQIERYFRRYLEMTPKYYQRLMRARQTLQALKLSPLAPLADIALELGFADQAHMTRELKQLIKITPKRYRQLLTQGAG	not soluble
MGSDKIHHHHHHMHYPPMIATTLPDGPEQTPLTAEIVLRYHLCWKHRDLDGVMALYHPDIQYHDFFQNRVLGHQELRDYVRACLPHEAGEDIVHSDRIRVDGSTAFIQYQVTVQGGDGLVAFQSSEAITVRDGLIWRVNEYATLVRQNGTGHANSGPRPATSRLGLSPRQLSTMAQDLEHYFRRQRPYLDPELDLQQVADASGYSRNQISYLLNQVLGQSFYRYVNQARLQHLMASLGDDSVEATIDELAFSAGFNSLSAFYKCFREHTGFTPKAYLKQISLRART	not soluble
DEIIDGEDELEQDDPFEGEDIDPESIQEPEASYDSSSSPSGASNAEDDWQDEHRVRKFHINGVTVKAIAERVQYYDADGKLVTESFKDYTRKTMAKQFTSMDDFVKRWQDADKKQAIIDELAEEGIIWEALELEVGKDLDPFDMICHVVYDQPALTRKERADNVKKRNYFTKYGETAQQVLNNLLDKYADEGVQEIENIHVLKVKPFDEMGRPAEIVKKCFGGKEQYLEAISELEAEIY	not soluble
MATITDNDVALTITKIHQIQGSGTAFNSAFGGIRTIEGVVVAAFPGGSGLNGFFVQEEDADTDNDSTTSEGIFVFDPTGQFSGSVGDKVRVTGSVSEFSTNNGVSSLTQLSSVSSIINLGADILPKMSNIQLPVTTVADLERYEGMRVNISAGNGDLTVTEHFQLGRFGQVVLSATGTSNQPGTDGRLEQYTQFNDPSVAGYAAYLDEIAKRRIILDDGSSTQNPATIIFGRGGEPLSATNTLRGGDTVASITGVLDQRFEGYRVQTSTGVDFTPANPRPATTPDVGGTLKVASFNVLNYFNGDLEHHHHHH	not soluble
GTRKCELQGLWRNELGSNMTISALDVAGTFSGSYQTAVTATNKQILVSPLKGAQQPPGTKGQQPTFGFTVQWQFADSTTVFVGQCFVDRRGKEMLEMAWLLREEVPSRKDTWKATRVGTNVFTRVK	soluble
MIVAFCLYKYFPFGGLQRDFMRIASTVAARGHHVRVYTQSWEGDCPKAFELIQVPVKSHTNHGRNAEYYAWVQNHLKEHPADRVVGFNKMPGLDVYFAADVCYAEKVAQEKGFLYRLTSRYRHYAAFERATFEQGKSTKLMMLTDKQIADFQKHYQTEPERFQILPPGIYPDRKYSEQIPNSREIYRQKNGIKEQQNLLLQVGSDFGRKGVDRSIEALASLPESLRHNTLLFVVGQDKPRKFEALAEKLGVRSNVHFFSGRNDVSELMAAADLLLHPAYQEAAGIVLLEAITAGLPVLTTAVCGYAHYIADANCGTVIAEPFSQEQLNEVLRKALTQSPLRMAWAENARHYADTQDLYSLPEKAADIITGGLDG	soluble
